Laboratory results as given in patent US20220259330A1 (SUNSHINE GUOJIAN PHARMACEUTICAL SHANGHAI, published 2022).
“And” between values parts separate entries of the source, which are not always exact repeats. Identical values can stand only once. Each block holds one binder with its values, some of them ahead of it.

Experiments:
CD137-ECD-Fc = biological target: T1, CD137-ECD-Fc (human, UniProt Q07011 24-186); test: ELISA, plate coated with CD137-ECD-Fc
T1 construct: extracellular domain; Bought; also called recombinant protein of the extracellular segment of human CD137 with Fc tags (Sino Biological 10041-H02H); not shown: Fc tag
T1 sequence (Q07011 24-186): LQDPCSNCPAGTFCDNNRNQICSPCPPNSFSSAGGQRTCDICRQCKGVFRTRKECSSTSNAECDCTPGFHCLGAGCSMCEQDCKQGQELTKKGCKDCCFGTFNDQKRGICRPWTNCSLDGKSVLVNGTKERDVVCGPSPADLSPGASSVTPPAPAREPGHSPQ

PD1-ECD-His = biological target: T2, PD1-ECD-His (human, UniProt Q15116 25-170); test: ELISA, plate coated with PD1-ECD-His
T2 construct: extracellular domain; Bought; also called recombinant protein of the extracellular segment of human PD-1 with a polyhistidine tag (Sino Biological 10377-H08H); not shown: polyhistidine tag
T2 sequence (Q15116 25-170): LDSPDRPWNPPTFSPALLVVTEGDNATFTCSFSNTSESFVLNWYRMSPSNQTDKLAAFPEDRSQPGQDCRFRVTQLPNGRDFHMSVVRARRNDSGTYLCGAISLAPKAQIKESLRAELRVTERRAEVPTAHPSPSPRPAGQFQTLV

CD47-ECD-His = biological target: T3, CD47-ECD-His (human, UniProt Q08722 19-139); test: ELISA, plate coated with CD47-ECD-His
T3 construct: extracellular domain; Bought; also called recombinant protein of the extracellular segment of human CD47 with a polyhistidine tag (Sino Biological 12283-H08H); not shown: polyhistidine tag
T3 sequence (Q08722 19-139 limits assumed): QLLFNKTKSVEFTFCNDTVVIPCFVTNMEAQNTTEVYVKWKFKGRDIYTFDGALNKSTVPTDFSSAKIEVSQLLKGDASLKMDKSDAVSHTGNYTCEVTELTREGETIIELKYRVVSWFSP

HER2-ECD-His = biological target: T4, HER2-ECD-His (human, UniProt P04626 23-652); test: ELISA, plate coated with HER2-ECD-His
T4 construct: extracellular domain; Bought; also called recombinant protein of the extracellular segment of human Her-2 with a polyhistidine tag (ACROBiosystems HE2-H5225); not shown: polyhistidine tag

VEGF165-His = biological target: T5, VEGF165-His (human, UniProt P15692-4 27-191); test: ELISA, plate coated with VEGF165-His
T5 construct: also called Human VEGF165 with a 6*His tag
T5 sequence: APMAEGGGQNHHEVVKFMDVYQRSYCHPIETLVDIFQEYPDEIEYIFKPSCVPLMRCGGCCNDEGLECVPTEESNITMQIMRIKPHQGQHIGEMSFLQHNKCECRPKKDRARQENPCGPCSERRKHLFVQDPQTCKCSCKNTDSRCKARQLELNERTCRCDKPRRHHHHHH
Procedure: The ELISA detection method used in the following examples is described as follows: An ELISA plate was coated with recombinant proteins, respectively, and blocked with PBST containing 1% bovine serum albumin (PBST: phosphate buffer containing 0.05% Tween-20). The antibody to be tested was serially diluted, and then transferred to the above plate coated with recombinant protein, incubated at room temperature for half an hour and then the plate was washed; an appropriately diluted HRP (Horseradish Peroxidase)-labeled goat anti-human antibody (Fc- or Fab Specific, purchased from Sigma) was added, incubated at room temperature for half an hour and then the plate was washed; 100 μl of chromogenic solution with TMB (3,3′,5,5′-Tetramethylbenzidine) as a substrate was added to each well, incubated at room temperature for 1-5 min; 50 μl of stop solution (2M H₂SO₄) was added to stop the reaction. OD450 was read with a microplate reader (SpectraMax 190), and graphing and data analysis were performed using GraphPad Prism6, and EC50 was calculated.
Human VEGF165 with a 6*His tag (sequence from NCBI, Accession: AAM03108), and this recombinant protein was denoted as VEGF165-His. An ELISA plate was coated with PD1-His and VEGF165-His, with a coating concentration of 20 ng/well and 10 ng/well, respectively.

EC50 (CD137-ECD-Fc): 357 pM | EC50 (PD1-ECD-His): 229 pM
B1: 609-Fab-137-IgG4 (bispecific antibody)
heavy: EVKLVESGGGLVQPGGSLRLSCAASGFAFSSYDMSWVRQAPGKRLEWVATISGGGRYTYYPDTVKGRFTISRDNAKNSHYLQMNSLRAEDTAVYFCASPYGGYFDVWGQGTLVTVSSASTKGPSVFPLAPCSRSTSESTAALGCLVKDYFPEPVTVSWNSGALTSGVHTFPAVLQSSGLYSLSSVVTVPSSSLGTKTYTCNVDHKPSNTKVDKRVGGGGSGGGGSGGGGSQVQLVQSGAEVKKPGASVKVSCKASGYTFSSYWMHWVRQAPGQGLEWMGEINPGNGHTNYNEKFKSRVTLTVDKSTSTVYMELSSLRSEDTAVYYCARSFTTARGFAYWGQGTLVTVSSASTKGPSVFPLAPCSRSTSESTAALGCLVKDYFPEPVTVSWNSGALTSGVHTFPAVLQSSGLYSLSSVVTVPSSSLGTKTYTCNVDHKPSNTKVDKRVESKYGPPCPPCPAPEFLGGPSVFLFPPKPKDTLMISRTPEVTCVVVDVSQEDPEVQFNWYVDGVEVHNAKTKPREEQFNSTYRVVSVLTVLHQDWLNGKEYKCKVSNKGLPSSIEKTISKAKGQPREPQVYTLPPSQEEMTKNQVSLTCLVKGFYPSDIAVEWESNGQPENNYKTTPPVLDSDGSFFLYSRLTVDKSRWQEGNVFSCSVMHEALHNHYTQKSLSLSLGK
light: EIVMTQSPDFQSVTPKEKVTITCRASQTISDYLHWYQQKPDQSPKLLIKYASQSISGIPSRFSGSGSGSDFTLTINSLEAEDAATYYCQDGHSFPPTFGQGTKVEIKRTVAAPSVFIFPPSDEQLKSGTASVVCLLNNFYPREAKVQWKVDNALQSGNSQESVTEQDSKDSTYSLSSTLTLSKADYEKHKVYACEVTHQGLSSPVTKSFNRGEC

EC50 (CD137-ECD-Fc): 242 pM | EC50 (PD1-ECD-His): 1420 pM
B2: 137-Fab-609-IgG4 (bispecific antibody)
heavy: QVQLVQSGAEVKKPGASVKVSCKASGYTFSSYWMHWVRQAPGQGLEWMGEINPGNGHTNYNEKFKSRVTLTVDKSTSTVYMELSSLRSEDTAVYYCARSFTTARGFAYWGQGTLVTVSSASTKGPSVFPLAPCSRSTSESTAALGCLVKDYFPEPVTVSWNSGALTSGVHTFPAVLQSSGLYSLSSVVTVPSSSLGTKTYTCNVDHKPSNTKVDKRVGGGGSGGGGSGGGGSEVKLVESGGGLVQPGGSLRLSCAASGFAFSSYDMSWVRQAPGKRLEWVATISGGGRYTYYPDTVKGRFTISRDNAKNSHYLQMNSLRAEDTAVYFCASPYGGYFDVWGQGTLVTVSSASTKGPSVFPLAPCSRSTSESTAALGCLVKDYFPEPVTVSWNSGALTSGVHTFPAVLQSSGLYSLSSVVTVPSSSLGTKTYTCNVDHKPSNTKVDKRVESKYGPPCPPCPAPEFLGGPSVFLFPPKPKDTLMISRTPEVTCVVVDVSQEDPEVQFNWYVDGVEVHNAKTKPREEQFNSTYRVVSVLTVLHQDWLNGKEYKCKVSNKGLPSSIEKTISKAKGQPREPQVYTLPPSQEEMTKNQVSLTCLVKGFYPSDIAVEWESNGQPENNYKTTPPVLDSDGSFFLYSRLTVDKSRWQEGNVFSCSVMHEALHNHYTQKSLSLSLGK
light: EIVMTQSPDFQSVTPKEKVTITCRASQTISDYLHWYQQKPDQSPKLLIKYASQSISGIPSRFSGSGSGSDFTLTINSLEAEDAATYYCQDGHSFPPTFGQGTKVEIKRTVAAPSVFIFPPSDEQLKSGTASVVCLLNNFYPREAKVQWKVDNALQSGNSQESVTEQDSKDSTYSLSSTLTLSKADYEKHKVYACEVTHQGLSSPVTKSFNRGEC

EC50 (CD47-ECD-His): 78.2 pM | EC50 (HER2-ECD-His): 106 pM
B3: CD47B-Fab-19H6-IgG1 (bispecific antibody)
heavy: not shown
light: DVVMTQSPLSLPVTLGQPASISCRSSQSLVHSNGNTYLHWYQQRPGQSPRLLIYKVSNRFSGVPDRFSGSGSGTDFTLKISRVEAEDVGVYFCSQSTHIPWTFGQGTKVEIKRTVAAPSVFIFPPSDEQLKSGTASVVCLLNNFYPREAKVQWKVDNALQSGNSQESVTEQDSKDSTYSLSSTLTLSKADYEKHKVYACEVTHQGLSSPVTKSFNRGEC

EC50 (CD47-ECD-His): 194 pM | EC50 (HER2-ECD-His): 154 pM
B4: 19H6-Fab-CD47B-IgG1 (bispecific antibody)
heavy: not shown
light: DVVMTQSPLSLPVTLGQPASISCRSSQSLVHSNGNTYLHWYQQRPGQSPRLLIYKVSNRFSGVPDRFSGSGSGTDFTLKISRVEAEDVGVYFCSQSTHIPWTFGQGTKVEIKRTVAAPSVFIFPPSDEQLKSGTASVVCLLNNFYPREAKVQWKVDNALQSGNSQESVTEQDSKDSTYSLSSTLTLSKADYEKHKVYACEVTHQGLSSPVTKSFNRGEC

binding result (CD137-ECD-Fc): no binding | binding result (CD47-ECD-His): no binding | EC50 (HER2-ECD-His): 77 pM and 126 pM and 122 pM and 193 pM
B5: 19H6-Hu (antibody, human IgG1, kappa, V domains shown)
VH: QVQLVQSGAEVKKPGASVKVSCKGSGYTFTDYAIHWVRQAPGQSLEWIGVFSIYYENINYNQKFKGRATMTVDKSTSTAYMELRSLRSDDTAVYYCARRDGGTINYWGQGTLVTVSS
VL: DVVMTQSPLSLPVTLGQPASISCRSSQSLVHSNGNTYLHWYQQRPGQSPRLLIYKVSNRFSGVPDRFSGSGSGTDFTLKISRVEAEDVGVYFCSQSTHIPWTFGQGTKVEIKR
notes: Humanized anti-human HER2, IgG1, kappa; also called 19H6-Hu-HC+19H6-Hu-LC

EC50 (CD47-ECD-His): 42.8 pM | binding result (HER2-ECD-His): no binding
B6: Anti-CD47B-Hu (antibody, human IgG1, kappa, V domains shown)
VH: QVQLVQSGAEVKKPGASVKVSCKASGYTFANHVIHWVRQAPGQGLEWMGYIYPYNDGTKYNEKFKDRVTLTSDKSTSTVYMELSSLRSEDTAVYYCARGGYYTYDDWGQGTLVTVSS
VL: DVVMTQSPLSLPVTLGQPASISCRSSQSLVHSNGKTYLHWYQQRPGQSPRLLIYKVSNRFSGVPDRFSGSGSGTDFTLKISRVEAEDVGVYYCSQSTHVPYTFGQGTKVEIKR
notes: Humanized anti-human CD47, IgG1, kappa; also called humanized MABL-2

binding result (CD47-ECD-His): no binding | EC50 (HER2-ECD-His): 139 pM
B7: 19H6-Hu-HC+Anti-CD47B-Hu-LC (antibody, human IgG1, kappa, V domains shown)
VH: QVQLVQSGAEVKKPGASVKVSCKGSGYTFTDYAIHWVRQAPGQSLEWIGVFSIYYENINYNQKFKGRATMTVDKSTSTAYMELRSLRSDDTAVYYCARRDGGTINYWGQGTLVTVSS
VL: DVVMTQSPLSLPVTLGQPASISCRSSQSLVHSNGKTYLHWYQQRPGQSPRLLIYKVSNRFSGVPDRFSGSGSGTDFTLKISRVEAEDVGVYYCSQSTHVPYTFGQGTKVEIKR
notes: Hybrid antibody

EC50 (CD47-ECD-His): 54.1 pM and 61.7 pM | binding result (HER2-ECD-His): no binding
B8: Anti-CD47B-Hu-HC+19H6-Hu-LC (antibody, human IgG1, kappa, V domains shown)
VH: QVQLVQSGAEVKKPGASVKVSCKASGYTFANHVIHWVRQAPGQGLEWMGYIYPYNDGTKYNEKFKDRVTLTSDKSTSTVYMELSSLRSEDTAVYYCARGGYYTYDDWGQGTLVTVSS
VL: DVVMTQSPLSLPVTLGQPASISCRSSQSLVHSNGNTYLHWYQQRPGQSPRLLIYKVSNRFSGVPDRFSGSGSGTDFTLKISRVEAEDVGVYFCSQSTHIPWTFGQGTKVEIKR
notes: Hybrid antibody

EC50 (VEGF165-His): 8220 pM
B9: 601-HC+20-Hu-LC (antibody, human IgG1, kappa, V domains shown)
VH: EVQLVESGGGLVQPGGSLRLSCAASGYTFTNYGMNWVRQAPGKGLEWVGWINTYTGEPTYAADFKRRFTFSLDTSKSTAYLQMNSLRAEDTAVYYCAKYPHYYGSSHWYFDVWGQGTLVTVSS
VL: DIQMTQSPSSLSASVGDRVTITCSASQGISNFLSWYQQKPGKTVKLLIYYTSSLHSGVPSRFSGSGSGTDYTFTISSLQPEDIATYYCQQYSNLPWTFGQGTKVEIKR
notes: Hybrid antibody

EC50 (VEGF165-His): 133 pM
B10: 601-HC+601-LC-D28G (antibody, human IgG1, kappa, V domains shown)
VH: EVQLVESGGGLVQPGGSLRLSCAASGYTFTNYGMNWVRQAPGKGLEWVGWINTYTGEPTYAADFKRRFTFSLDTSKSTAYLQMNSLRAEDTAVYYCAKYPHYYGSSHWYFDVWGQGTLVTVSS
VL: DIQMTQSPSSLSASVGDRVTITCSASQGISNYLNWYQQKPGKAPKVLIYFTSSLHSGVPSRFSGSGSGTDFTLTISSLQPEDFATYYCQQYSTVPWTFGQGTKVEIKR

EC50 (VEGF165-His): 140 pM
B11: 601-HC+601-LC-F50Y (antibody, human IgG1, kappa, V domains shown)
VH: EVQLVESGGGLVQPGGSLRLSCAASGYTFTNYGMNWVRQAPGKGLEWVGWINTYTGEPTYAADFKRRFTFSLDTSKSTAYLQMNSLRAEDTAVYYCAKYPHYYGSSHWYFDVWGQGTLVTVSS
VL: DIQMTQSPSSLSASVGDRVTITCSASQDISNYLNWYQQKPGKAPKVLIYYTSSLHSGVPSRFSGSGSGTDFTLTISSLQPEDFATYYCQQYSTVPWTFGQGTKVEIKR

EC50 (VEGF165-His): 125 pM
B12: 601-HC+601-LC-Y32F (antibody, human IgG1, kappa, V domains shown)
VH: EVQLVESGGGLVQPGGSLRLSCAASGYTFTNYGMNWVRQAPGKGLEWVGWINTYTGEPTYAADFKRRFTFSLDTSKSTAYLQMNSLRAEDTAVYYCAKYPHYYGSSHWYFDVWGQGTLVTVSS
VL: DIQMTQSPSSLSASVGDRVTITCSASQDISNFLNWYQQKPGKAPKVLIYFTSSLHSGVPSRFSGSGSGTDFTLTISSLQPEDFATYYCQQYSTVPWTFGQGTKVEIKR

EC50 (VEGF165-His): 126 pM
B13: 601-HC+601-LC-T93N (antibody, human IgG1, kappa, V domains shown)
VH: EVQLVESGGGLVQPGGSLRLSCAASGYTFTNYGMNWVRQAPGKGLEWVGWINTYTGEPTYAADFKRRFTFSLDTSKSTAYLQMNSLRAEDTAVYYCAKYPHYYGSSHWYFDVWGQGTLVTVSS
VL: DIQMTQSPSSLSASVGDRVTITCSASQDISNYLNWYQQKPGKAPKVLIYFTSSLHSGVPSRFSGSGSGTDFTLTISSLQPEDFATYYCQQYSNVPWTFGQGTKVEIKR

EC50 (VEGF165-His): 208 pM
B14: 601-HC+601-LC-N34S (antibody, human IgG1, kappa, V domains shown)
VH: EVQLVESGGGLVQPGGSLRLSCAASGYTFTNYGMNWVRQAPGKGLEWVGWINTYTGEPTYAADFKRRFTFSLDTSKSTAYLQMNSLRAEDTAVYYCAKYPHYYGSSHWYFDVWGQGTLVTVSS
VL: DIQMTQSPSSLSASVGDRVTITCSASQDISNYLSWYQQKPGKAPKVLIYFTSSLHSGVPSRFSGSGSGTDFTLTISSLQPEDFATYYCQQYSTVPWTFGQGTKVEIKR

EC50 (VEGF165-His): 148 pM
B15: 601-HC+601-LC-F71Y (antibody, human IgG1, kappa, V domains shown)
VH: EVQLVESGGGLVQPGGSLRLSCAASGYTFTNYGMNWVRQAPGKGLEWVGWINTYTGEPTYAADFKRRFTFSLDTSKSTAYLQMNSLRAEDTAVYYCAKYPHYYGSSHWYFDVWGQGTLVTVSS
VL: DIQMTQSPSSLSASVGDRVTITCSASQDISNYLNWYQQKPGKAPKVLIYFTSSLHSGVPSRFSGSGSGTDYTLTISSLQPEDFATYYCQQYSTVPWTFGQGTKVEIKR

EC50 (VEGF165-His): 326 pM
B16: 601-HC+601-LC-V46L (antibody, human IgG1, kappa, V domains shown)
VH: EVQLVESGGGLVQPGGSLRLSCAASGYTFTNYGMNWVRQAPGKGLEWVGWINTYTGEPTYAADFKRRFTFSLDTSKSTAYLQMNSLRAEDTAVYYCAKYPHYYGSSHWYFDVWGQGTLVTVSS
VL: DIQMTQSPSSLSASVGDRVTITCSASQDISNYLNWYQQKPGKAPKLLIYFTSSLHSGVPSRFSGSGSGTDFTLTISSLQPEDFATYYCQQYSTVPWTFGQGTKVEIKR

EC50 (CD137-ECD-Fc): 461 pM | binding result (PD1-ECD-His): no binding
B17: Anti-CD137-Hu (antibody, human IgG4 S228P, kappa, V domains shown)
VH: QVQLVQSGAEVKKPGASVKVSCKASGYTFSSYWMHWVRQAPGQGLEWMGEINPGNGHTNYNEKFKSRVTLTVDKSTSTVYMELSSLRSEDTAVYYCARSFTTARGFAYWGQGTLVTVSS
VL: EIVMTQSPDFQSVTPKEKVTITCRASQTISDYLHWYQQKPDQSPKLLIKYASQSISGIPSRFSGSGSGSDFTLTINSLEAEDAATYYCQDGHSFPPTFGQGTKVEIKR
notes: Humanized anti-human CD137, IgG4 (S228P), kappa; also called humanized 4B4-1-1

binding result (CD137-ECD-Fc): no binding | binding result (PD1-ECD-His): no binding
B18: Anti-CD137-Hu-HC+609-LC (antibody, human IgG4 S228P, kappa, V domains shown)
VH: QVQLVQSGAEVKKPGASVKVSCKASGYTFSSYWMHWVRQAPGQGLEWMGEINPGNGHTNYNEKFKSRVTLTVDKSTSTVYMELSSLRSEDTAVYYCARSFTTARGFAYWGQGTLVTVSS
VL: EIVLTQSPATLSLSPGERATLSCRASQSISNFLHWYQQKPGQAPRLLIKYASQSISGIPARFSGSGSGTDFTLTISSLEPEDFAVYFCQQSNSWPHTFGQGTKVEIKR
notes: Hybrid antibody
